Laboratory results published in patent US20230061378A1 (SUZHOU ALPHAMAB, published 2023).

Legend:
[1] = target: T1, pertussis toxin (PT) (Bordetella pertussis, UniProt P04977 35-269; P04978 28-226; P04979 29-227; P0A3R5 43-152; P04981 35-133); assay: cell-based or functional assay
[2] = target: T1, pertussis toxin (PT); assay: BLI, antibody on AHC biosensor, PTpuri 6.25-100 nM in solution
[3] = target: T1, pertussis toxin (PT); assay: BLI in-tandem binning on PT-biotin; competitor (Ab1, bound first): 11E6
[4] = target: T1, pertussis toxin (PT); assay: BLI in-tandem binning on PT-biotin; competitor (Ab1, bound first): 1B7

Binder	Minimum neutralizing concentration (CHO-K1 cells with PT toxin) [1] [µg/mL]	Kd [2] [pM]	koff [2] [s⁻¹]	kon [2] [M⁻¹ s⁻¹]	Ab2 with Ab1/Ab2 without Ab1 [3] [%]	Ab2 with Ab1/Ab2 without Ab1 [4] [%]
11E6 (antibody, V domains shown) VH: EVKVVESGGGLVQPGGSLRLSCTTSGFTFTDYYVSWVRQPPGKALEWLGFIRNKVNGYTTEFSSSVKGRFTISRDNSQSILYLQMNTLRVEDSATYYCARVSYYGRGWYFDYWGQGTTLTVSS VL: DIVMTQSTSSLSASLGDRVTISCRASQDIDNYLSWFQQKPDGTVKLLIYYTSRLHSGVPSRFSGSGSGTDYSLTISSLDQEDIATYFCQQGNTFPWTFGGGTKLEIK	0.8	< 1	< 1e-07	311000	0.2	–
1B7 (antibody, V domains shown) VH: QVQLQQPGSELVRPGASVKLSCKASGYKFTSYWMHWVKQRPGQGLEWIGNIFPGSGSTNYDEKFNSKATLTVDTSSNTAYMQLSSLTSEDSAVYYCTRWLSGAYFDYWGQGTTLTVSS VL: QIVLTQSPALMSASPGEKVTMTCSASSSVSFMYWYQQKPRSSPKPWIYLTSNLPSGVPARFSGSGSGTSYSLTISSMEAEDAATYYCQQWSSHPPTFGSGTKLEIK	1.6	< 1	< 1e-07	387000	–	1.1
